From the nanobody polyreactivity screen of Harvey et al. (2022) come the findings set out here.

The series is described as follows: yeast display, Sf9 membrane polyspecificity reagent, FACS + sequencing; frameworks hold sequencing errors. In short, it runs like this: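 Polyreactivity labels are assigned by the sorting gate from which each nanobody was recovered. The gates were low and high (top ~1%), set on anti-HA fluorescence for expression and streptavidin fluorescence for reagent binding. Before sorting, galactose-induced (36–48 hours) yeast display cells were stained for 1 hour at 4 °C with 10% biotinylated, detergent-solubilized Sf9 membrane reagent.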
On to “QVQLVESGGGIVQAGGSLRLICAASGSIFDGYAMGWYRQAPGKERELVAAISASGVRTYYADSVKGRFTISRDNAKNTVYLQMKSLKPEDTAVYYGAAAVYYGQSVWYYYWGQGTQVTVSS”, for which the “polyreactivity (PSR sort gate)” value is “high polyreactivity”. On to “QVQLVESGGGIVQAGGSLRLLCAASGRIFTGNVMGWYRQAPGKERVLVAAISYGGGSTNYADSVKGRFTISRDNAKNTVSLQMNSLIPEDTAVYYCAVLYGYRSSSRYGYDSWGQGSQVTVSS”, for which the “polyreactivity (PSR sort gate)” value is “high polyreactivity”. Next, “QVQLVESGGGIVQAGGSLRLLCAASGSIFLTNAMGWYRQAPGKERQFVAAIDWGGTITYYADSVKGRFTISRDNAKNNVYLQMNSLKPEDTAVYYCAADGYIRQYVTYYYWGQGTQVTVSS”: “low polyreactivity”; “QVQLVESGGGIVQAGGSLRLRCAASGFIFAVNAKGWYRQAPGKESELVAAISSSGTTNYADSVKGRFTISRDNAKNTVYLQMNSLKPEDTAVYYCNKRWRDKYPQYDYWGLGTQVTVSS”: “low polyreactivity”. In the case of “QVQLVESGGGIVQAGGSLRLRCAASGSIFVPYAMGWYRQAPGKERELVAAISSRGGRTYYADSVKGRFTISRDNAKNTVYLQMNSLKPEDTAVYYCNKTAGSHIPRLEYWGQGTQVTVSS” it was “low polyreactivity”; in that of “QVQLVESGGGIVQAGGSLRLSCAASGFIFGPYTMGWYRQAPGKERELVAAINNSGSTNYADSVKGRFTISRDNAKNTVYLQMNSLKPEDTAVYYCAAEPIIFVRYDYWGQGTHVTVSS”, “low polyreactivity”; in that of “QVQLVESGGGIVQAGGSLRLSCAASGFIFHLYGMGWYRQAPGKERELVAAISSGGRTYYADSVKGRFTISRDNAKNTVSLQMNSLKPEDTAVYSCAVYVAYLYSYYYWGQGTQVNVSS”, “low polyreactivity”. Next, “QVQLVESGGGIVQAGGSLRLSCAASGFIFRYAMGWYRPAPGKERELVAAISSSGGSTNYADSVKGRFTISRDNAKNTVYLQMNILKPEDSAVYYCAADQYYGGSWWYDYWGQGTQVSVSS”: “high polyreactivity”; “QVQLVESGGGIVQAGGSLRLSCAASGFIFSSYAMGWYRQAPGKERELVAAITVRAGRTYYADSVKGRFTISRDNAKKTVYLQMNSLKPEDTAVYYCNAVSTAVIGYEYDYWGQGTQVTVSS”: “high polyreactivity”; “QVQLVESGGGIVQAGGSLRLSCAASGFIIRPYAMGWYRQAPGKERELVAAITGGGSTYYADSVKGRFTISRDNAKNTVYLQMNSLKPEDTAVYYCNADRRRRSGGFAGWHFQRNVYWGQGTQVTLSS”: “low polyreactivity”. On to “QVQLVESGGGIVQAGGSLRLSCAASGFILDYNAMGWYRQAPGKERELVATITGRGDRTYYADSVKGRFTISRDNAKNTVYLQMNSLKPEDTAVYDCAAGFDGSRHPGFDSWGQGTQVTVSS”, for which the “polyreactivity (PSR sort gate)” value is given as “low polyreactivity”. “QVQLVESGGGIVQAGGSLRLSCAASGFISSVNAMGWYRQAPGKDRELVAAISDSATSTYYADSVKGRFTISRDNAKNTVYLQMNSLKPEDTAVYYCDAYSHYVGYEYWGQGTQVTVSS”: the “polyreactivity (PSR sort gate)” value is “high polyreactivity”. Next, “QVQLVESGGGIVQAGGSLRLSCAASGFTFDPYAMGWYRQAPGKERELVAATSWSGGSTYYADSVKGRFTISRDNAKNTVYLQMNSLKPEDTAVYYCAAEWYNSAYYEYDYWGQGTQVTVSS”: “high polyreactivity”; “QVQLVESGGGIVQAGGSLRLSCAASGFTFIYYAMGWYRQAPGKERELVAGISSGGRTSYADSVKGRFTISRDNAKNTVYFQMNSLKPEDTAVYYCATPVSRFRRTEYGYYYWGQGTQVSVSS”: “high polyreactivity”; “QVQLVESGGGIVQAGGSLRLSCAASGFTFRYNTMGWYRQAPGKERELVAAITSRGTSTYYADSVKGRFTISRDNAKNTVYLQMYSLKPEDTAVYYCNKVYFKGTTRLSVSVYKLEYWGQGTQVTVSS”: “high polyreactivity”. In the case of “QVQLVESGGGIVQAGGSLRLSCAASGGIFLGNAMVWYRQAPGKERELVAGITWSGGRTYYADSVKGRFTISRDNAKNTVYLQMNSLKPEDTAVYYCNKDTPGTRFYGIYSYDYWGQGTQVTVSS” it was “low polyreactivity”; in that of “QVQLVESGGGIVQAGGSLRLSCAASGGIFYGYAMGWYRQAPGKERELVAAISSTGGRTYYADSVKGRFTISRDNAKNTVYLQMNSLKPEDTAVYYCAAEDFTRQFEYWGQGTQVTVSS”, “low polyreactivity”; in that of “QVQLVESGGGIVQAGGSLRLSCAASGGTFHYYAMGWYRQAPGKERELVAAINRSGDSTYYADSVKGRFTISRDNSKNTVYLQMNSLKPEDTAVYYCAVSYYGADGNPFPHDYWGQGTQVTVSS”, “low polyreactivity”.

In the case of “QVQLVESGGGIVQAGGSLRLSCAASGIIFWNYTMGWYRQAPGKERELVAAISVSGGSTYYADSVKGRFTISRDNAKNTVYLQMNSLKPEDTAVYYCAAEWIYPSPHYEYDYWGQGTQVTVSS”, the “polyreactivity (PSR sort gate)” value is reported as “high polyreactivity”. “QVQLVESGGGIVQAGGSLRLSCAASGITFTVYAMGWYRQAPGKERELVAAITSTGSTNYADSVKGRFTISRDNAKNTVYLQMISLKPEDTAVYYCAADRQITVYAYDYWGHGTQVTVSS”: the “polyreactivity (PSR sort gate)” value is recorded as “low polyreactivity”. In the case of “QVQLVESGGGIVQAGGSLRLSCAASGITSYFNAMGWYRQAPGKERELVAITWNGGSTYYADSVKGRFTISRDNAMNTVYLQMNSLKPEDTAVYYCAARYRRYNRKYDYWGQGTQVTVSS” it was “high polyreactivity”. In the case of “QVQLVESGGGIVQAGGSLRLSCAASGRIFLTNAKGWYRQAPGKERELVATITASGGTTYYADSVKGRFTISRDNAKNTVYLQMNSLKTEDTAVYYCAKRYYLRGYGRYYYWGQGTQVTVSS” it was “high polyreactivity”; in that of “QVQLVESGGGIVQAGGSLRLSCAASGRIFQLYGMGWYRQAPGKERECVAAISYGGGSTYYADSVKGRFTISRDIAKNTVYFKMNSLKPEDTAVYYCAAERRFYSLAKYQSMDYWGQGTQVTVSS”, “low polyreactivity”.

In the case of “QVQLVESGGGIVQAGGSLRLSCAASGRIFQRYTMGWYRQAPGKEREFVAAITYSGGSTHYADSVKGRFTISRDNAKNTVYLQMNSLKPEDTAVYYCNADRYYGRGYGYWGQGTQVTVSS”, the “polyreactivity (PSR sort gate)” value is reported as “low polyreactivity”. Next, “QVQLVESGGGIVQAGGSLRLSCAASGRIFSVNAMGWYRQAPGKERELVAAITGSGTITYYADSVKGRFTISRDNAKNSVYLQMNSLKPEDTAVYYCAARPVLRYYAGYYYWGQGTQVTVSS”: “high polyreactivity”; “QVQLVESGGGIVQAGGSLRLSCAASGRIFTRNAMGWYRQAPGKERELVAAISYSGGTTYYADSVKGRFTISRDNAKNTVYLQMNSLKPEDTAVYYCAALRPTQRYFTYDYWGQGTQVTVSS”: “high polyreactivity”; “QVQLVESGGGIVQAGGSLRLSCAASGRIIRYYTMGWYRQAPGKERELVAAIRQRGGSTYYADSVKGRFTISRDNAKNTVYLHMNSLKREDTAVYYCNAVRRTTYDYWGQGTQVTVSS”: “high polyreactivity”.

For the sequence “QVQLVESGGGIVQAGGSLRLSCAASGRNFYYYAMGWYRQAPGKERELVAAISWSGGRTYYADSVKGRFTISRDNAKNTVYFQMNSLKPEDTAVYYSNAEPPRGYSVSSGGEMDYWGQGTEVTVSS”, the “polyreactivity (PSR sort gate)” value is reported as “low polyreactivity”. Next, “QVQLVESGGGIVQAGGSLRLSCAASGRTFDSYAMGWYRQAPGKERELVAAITYSGGSTYYADSVKGRFTISRDNAKNTVYLQMNSLKPEDTAVYYCARDRFYYRLAGSKGRRKGDYWGQGTQVTVSS”: “high polyreactivity”. Take “QVQLVESGGGIVQAGGSLRLSCAASGRTFFLYTLGWYRQAPGKEREFVAAINYSGGRTYYADSVKGRFTISRDKAKNTVYLQMNSLKPEDTAVYYCAAYRGSYSYDYWGQGTQVTVSS”: the “polyreactivity (PSR sort gate)” value was “high polyreactivity”.

For the sequence “QVQLVESGGGIVQAGGSLRLSCAASGRTFNHYAMGWYRQAPGKERELVAAITNGGNTYYADSVKGRFTISRDNAKNTVYLQMNSLKPEDTAVYYCAKLYTDAIVWSAYDYWGQGTQVTVSS”, the “polyreactivity (PSR sort gate)” value is listed as “low polyreactivity”. Next, “QVQLVESGGGIVQAGGSLRLSCAASGRTFRPYAMGWYRQAPGKERELVAAITSGGSTYYADSVKGRFTISRDNAKNTVYLQMNSLKPEDTAVYYCNAKYYYQPPYDYWGQGTQVTVSS”: “low polyreactivity”; “QVQLVESGGGIVQAGGSLRLSCAASGRTFYAYTMGWYRQAPGKETELVAANSRTGGRTYYADSVKGRFTISRDNAKNTVYLQMNSLKPEDTAVYYCAAGSKPGIQFRSVYSAYRYYYCGQGTQVTVSS”: “high polyreactivity”. “QVQLVESGGGIVQAGGSLRLSCAASGRTFYYAMGWYRQAPGKERELVAAITSSSSTYYADSVKGRFTISRDNAKNTVYLQMNSLKPEDTAVYYCNSADDPYGSPSYGYDYWGQGTQVTVSS”: the “polyreactivity (PSR sort gate)” value is reported as “low polyreactivity”. Next, “QVQLVESGGGIVQAGGSLRLSCAASGRTIPPYGMGWYRQAPGKERELVAAISKSSGSTNYADSVKGRVTISRDNAKNTVYLQMNSLKPEDTAVYYCTKEWSIGPTGIRAYVRVWYYYWGQGTQVTVSS”: “low polyreactivity”. As for “QVQLVESGGGIVQAGGSLRLSCAASGRTIPYHAMGWYRQAPGKERELDAAISYSGGRTYYADCVKGRFTISRDNAKNSVYLLMNSLKPDDTAVYYCNALGSGREDVYWGQGTQVTVSS”, the “polyreactivity (PSR sort gate)” value is given as “high polyreactivity”. For “QVQLVESGGGIVQAGGSLRLSCAASGRTLISYAMGWYRQAPGKERELVAAISWGGSSTYYADSVKWRFTISRDNAKNTVYLQRNSLKPEDTAVYYCNTVYYYWGKWRGTYDYWGLGTQVTVSS”, the “polyreactivity (PSR sort gate)” value is “high polyreactivity”. On to “QVQLVESGGGIVQAGGSLRLSCAASGSIFKHYAMGWYRQAPGKERELVATIDYLGGRTYYADSVKGRFTISRDNAKNTVYLQMNSLKPEDTAVYYCAASRYSGKIRGEDYWGQRTQVTVSS”, for which the “polyreactivity (PSR sort gate)” value is reported as “low polyreactivity”. Next, “QVQLVESGGGIVQAGGSLRLSCAASGSIFKYYAMARYRQAPGKERELVASMSRVGSTNYADSVKGRFTISRDTAKNTVYLQMNSLKPEDTAVYYCNKRWLYYNLDYWGQGTQVTVSS”: “high polyreactivity”. Next, “QVQLVESGGGIVQAGGSLRLSCAASGSIFQWYAMGWYRQAPGKERELVAAISFNGGITYYADSVKGRFTISRDNANNTVYLQMNSLKPEDTAVYYCATEYRSASGDYDYWGQGTQVTVSS”: “low polyreactivity”.
